The target in one test is HLA-A*02:06. In words: IEDB peptide-MHC binding, purified MHC/direct/fluorescence; filed as Kd, often an IC50 or EC50 that approximates it; ≥ and ≤ were set here for values at or beyond the usual limits of such assays. The following applies: source organism: Variola virus.
The target of another test is HLA-A*02:03. The description is as above. Particulars: source organism: Variola virus.
A further test has as its target HLA-A*69:01. The test is described as above.
The target of the next test is HLA-A*02:01. The test is described as above.
Another test deals with HLA-A*29:02. The description is as above. The following applies: source organism: Burkholderia mallei ATCC 23344.
Test [1] addresses HLA-B*15:01. The description is as above. Particulars: source organism: Burkholderia mallei ATCC 23344.
Another test deals with HLA-A*02:16. The test is described as above. The following applies: source organism: Burkholderia mallei ATCC 23344.
The next test addresses HLA-B*18:01. The test is described as above.
In a further test the target is HLA-B*27:03. Described as above. The following applies: source organism: Burkholderia mallei ATCC 23344.
A further test addresses HLA-A*23:01. The description is as above. Particulars: source organism: Burkholderia mallei ATCC 23344.
The target of the next test is HLA-B*51:01. Described as above.
In another test the target is HLA-B*46:01. The description is as above.
Test [2] deals with HLA-B*39:01. Described as above. Particulars: source organism: Burkholderia mallei ATCC 23344.
The target in another test is HLA-B*15:17. The description is as above. Particulars: source organism: Burkholderia mallei ATCC 23344.
The target of another test is HLA-B*57:01. Described as above.
A further test addresses HLA-A*24:03. Described as above. The following applies: source organism: Burkholderia mallei ATCC 23344.
The next test addresses HLA-A*03:01. The test is described as above.
For a further test, the target named is HLA-A*68:02. Described as above. The following applies: source organism: Burkholderia mallei ATCC 23344.
In a further test the target is HLA-A*30:02. Description: IEDB peptide-MHC binding, purified MHC/competitive/fluorescence; filed as Kd, often an IC50 or EC50 that approximates it; ≥ and ≤ were set here for values at or beyond the usual limits of such assays. The following applies: source organism: Burkholderia mallei SAVP1.
A further test deals with HLA-B*44:02. The test is described as above. Particulars: source organism: Burkholderia mallei SAVP1.
The next test concerns the target HLA-B*07:02. Described as above. The following applies: source organism: Burkholderia mallei SAVP1.
Test [3] deals with HLA-A*01:01. The description is as above. Particulars: source organism: Burkholderia mallei SAVP1.
The target in test [4] is HLA-B*27:05. Described as above. Particulars: source organism: Burkholderia mallei SAVP1.
Test [5] concerns the target HLA-A*30:01. The description is as above. Particulars: source organism: Burkholderia mallei SAVP1.
Test [6] has as its target HLA-A*11:01. Described as above. The following applies: source organism: Burkholderia mallei SAVP1.
Another test concerns the target HLA-A*66:01. The description is as above. The following applies: source organism: Burkholderia mallei SAVP1.
Another test addresses HLA-B*53:01. The description is as above. The following applies: source organism: Burkholderia mallei SAVP1.
Another test addresses HLA-B*14:02. The test is described as above. Particulars: source organism: Burkholderia mallei SAVP1.
Test [7] deals with HLA-B*40:01. The description is as above. The following applies: source organism: Burkholderia mallei SAVP1.
For test [8], the target named is HLA-B*08:01. The test is described as above. Particulars: source organism: Burkholderia mallei SAVP1.
The target in test [9] is HLA-B*58:01. Described as above. Particulars: source organism: Burkholderia mallei SAVP1.
In test [10] the target is HLA-A*01:01. Description: IEDB peptide-MHC binding, purified MHC/direct/fluorescence; filed as Kd, often an IC50 or EC50 that approximates it; ≥ and ≤ were set here for values at or beyond the usual limits of such assays. Particulars: source organism: Mycobacterium tuberculosis.
Test [11] deals with HLA-B*27:05. The test is described as above. The following applies: source organism: Mycobacterium tuberculosis.
The target in the next test is HLA-B*48:01. Described as above. Particulars: source organism: Mycobacterium tuberculosis.
In the next test the target is HLA-B*08:02. Described as above. The following applies: source organism: Mycobacterium tuberculosis str. Haarlem.
A further test addresses HLA-A*31:01. The description is as above. Particulars: source organism: Mycobacterium tuberculosis.
Test [12] addresses HLA-A*30:01. Described as above. The following applies: source organism: Mycobacterium tuberculosis str. Haarlem.
Test [13] has as its target HLA-A*11:01. The description is as above. The following applies: source organism: Mycobacterium tuberculosis.
In another test the target is HLA-B*38:01. The description is as above. Particulars: source organism: Mycobacterium tuberculosis str. Haarlem.
A further test addresses HLA-A*26:01. The test is described as above. The following applies: source organism: Mycobacterium tuberculosis str. Haarlem.
The target of test [14] is HLA-B*40:01. The description is as above. The following applies: source organism: Mycobacterium tuberculosis.
Test [15] deals with HLA-B*08:01. The test is described as above. Particulars: source organism: Mycobacterium tuberculosis str. Haarlem.
Test [16] concerns the target HLA-B*58:01. The description is as above. The following applies: source organism: Mycobacterium tuberculosis.
The target of test [17] is HLA-B*15:01. Description: IEDB peptide-MHC binding, purified MHC/competitive/fluorescence; filed as Kd, often an IC50 or EC50 that approximates it; ≥ and ≤ were set here for values at or beyond the usual limits of such assays. The following applies: source organism: Mycobacterium tuberculosis C.
The target in test [18] is HLA-B*39:01. The description is as above. Particulars: source organism: Mycobacterium tuberculosis C.
For the next test, the target named is HLA-B*15:09. The description is as above. Particulars: source organism: Mycobacterium tuberculosis C.
The mark [19] stands for this setting: source organism: Camelpox virus CMS.
The mark [20] stands for this setting: source organism: Burkholderia mallei ATCC 23344.
Setting [21] is: source organism: Mycobacterium tuberculosis.

Among the data in the Immune Epitope Database (IEDB) are Kd values, retold here.

Regarding DLYDMIHNV, the dissociation constant Kd is 0.076 µM with HLA-A*02:06, 0.006 µM with HLA-A*02:03, 0.002 µM in the test with HLA-A*69:01 (setting [19]) and 0.0159 µM in the test with HLA-A*02:01 (setting [19]).
For the sequence NVMDPMHGA, the Kd with HLA-A*29:02, with HLA-B*15:01 [1], with HLA-A*02:16, with HLA-B*18:01 (setting [20]), with HLA-B*27:03 and with HLA-A*23:01 was ≥ 20 µM in each case. The dissociation constant (Kd) in the test with HLA-B*51:01 (setting [20]), in the test with HLA-B*46:01 (setting [20]), with HLA-B*39:01 [2], with HLA-B*15:17, with HLA-B*57:01 (setting [20]) and in the test with HLA-A*02:01 (setting [20]) was ≥ 20 µM throughout. Further, the Kd was ≥ 20 µM in the test with HLA-A*24:03; ≥ 20 µM with HLA-A*03:01 (setting [20]); ≤ 0.001 µM with HLA-A*68:02; ≥ 5 µM in the test with HLA-A*30:02; ≥ 5 µM with HLA-B*44:02; ≥ 5 µM with HLA-B*07:02. Moreover, the Kd in the test with HLA-A*01:01 [3], with HLA-B*27:05 [4], with HLA-A*30:01 [5], with HLA-A*11:01 [6], in the test with HLA-A*66:01 and with HLA-B*53:01 was ≥ 5 µM in each case. The Kd with HLA-B*14:02, with HLA-B*40:01 [7], with HLA-B*08:01 [8] and in the test with HLA-B*58:01 [9] was ≥ 5 µM throughout.
Regarding RPKPDYSAM, the equilibrium dissociation constant (Kd) in the test with HLA-A*01:01 [10], with HLA-B*27:05 [11], with HLA-B*48:01, with HLA-A*69:01 (setting [21]), in the test with HLA-B*08:02 and with HLA-B*18:01 (setting [21]) was ≥ 20 µM throughout. Further, the Kd in the test with HLA-A*31:01 is ≥ 20 µM; in the test with HLA-A*30:01 [12], 0.123 µM; in the test with HLA-A*11:01 [13], ≥ 20 µM; with HLA-B*38:01, ≥ 20 µM; with HLA-B*51:01 (setting [21]), ≥ 20 µM; with HLA-B*46:01 (setting [21]), ≥ 20 µM. Also, the Kd was ≥ 20 µM with HLA-A*26:01; ≥ 20 µM with HLA-B*57:01 (setting [21]); ≥ 20 µM with HLA-B*40:01 [14]; 0.08 µM with HLA-B*08:01 [15]; ≥ 20 µM with HLA-B*58:01 [16]; ≥ 20 µM with HLA-A*02:01 (setting [21]). For the same sequence, the Kd is ≥ 20 µM with HLA-A*03:01 (setting [21]), ≥ 20 µM in the test with HLA-B*15:01 [17], 1.96 µM with HLA-B*39:01 [18] and ≥ 20 µM with HLA-B*15:09.
